Measured values reported in PMC4794788, “Cell‐free synthesis of isotopically labelled peptide ligands for the functional characterization of G protein‐coupled receptors” (FEBS Open Bio, 2015).

Target: T1, human complement 5a receptor (C5aR) (Homo sapiens, UniProt P21730)
T1 construct: 10x His (N); FLAG (N); StrepII (C); made in house; host or cells: Sf9 insect cells (recombinant baculovirus, pOET5 / flashBAC); membrane preparation
T1 sequence (P21730 1-350): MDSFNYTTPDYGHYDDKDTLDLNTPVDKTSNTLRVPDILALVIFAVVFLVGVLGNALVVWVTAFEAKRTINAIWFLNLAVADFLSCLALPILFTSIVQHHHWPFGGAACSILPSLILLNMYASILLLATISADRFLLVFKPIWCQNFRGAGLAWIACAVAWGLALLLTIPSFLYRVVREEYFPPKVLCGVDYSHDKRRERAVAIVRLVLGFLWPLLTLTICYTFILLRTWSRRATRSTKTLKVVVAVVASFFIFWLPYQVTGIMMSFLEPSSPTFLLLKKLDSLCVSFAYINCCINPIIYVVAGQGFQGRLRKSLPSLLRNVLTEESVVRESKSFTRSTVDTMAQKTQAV
Experiment: Saturation radioligand binding of [^3H]‐C5a^CF to C5aR in Sf9 membranes
Conditions: radioligand 31 pM‐8 nM; human C5aR coproduced with Gαi2, Sf9 membranes (10–50 μg total protein); 120 min, room temperature; 50 mM Hepes‐NaOH pH 7.4, 5 mM MgCl2, 1 mM CaCl2, 0.5% BSA, 75 mM NaCl; nonspecific: 50 μM H2N‐ChaW; filtration, scintillation counting; means ± SEM from three or two independent experiments in triplicate; read-out: KD (dissociation constant)
From the text: The complement 5a receptor was coproduced with Gαi2 in Sf9 insect cells. The cDNA encoding the human complement 5a receptor flanked by an N‐terminal 10x His and FLAG tag and a C‐terminal StrepII tag was cloned into the pOET5 transfer vector (Oxford Expression Technologies, Oxford, UK). pOET5 contains two expression cassettes, the receptor is expressed under the control of a polyhedron promoter; Gαi2 expression is regulated by a p10 promoter. Recombinant baculoviruses were generated with the flashBAC protein expression system (Oxford Expression Technologies) according to manufacturer's instructions. […] Total membrane protein content was determined by the bicinchoninic acid (BCA) method using bovine serum albumin as the standard.
For the determination of binding parameters, membranes containing the respective receptors (10–50 μg total membrane protein) were incubated with cell‐free synthesized tritium‐labelled ligands in varying concentrations. Binding was terminated by rapid filtration over glass fibre filters pretreated with 0.3% polyethyleneimine using a Brandel harvester (Brandel, Alpha Biotech Ltd, Killearn, UK) and analysed by liquid scintillation counting. […]
Data are represented as means ± SEM from three or two independent experiments performed in triplicate and analysed in […] […]

- Kd: 1.18 ± 0.27 nM
B1: [^3H]‐C5a^CF: cell‐free‐synthesized tritium‐labelled complement 5a with N‐terminal hexa‐histidine tag; contains three proline residues (protein, UniProt P01031 678-751, looked up)
C5a anaphylatoxin: TLQKKIEEIAAKYKHSVVKKCCYDGACVNNDETCEQRAARISLGPRCIKAFTECCVVASQLRANISHKDMQLGR
modifications: C5a anaphylatoxin tritium label
